US20260070987A1

target: equine FcRn (large alpha subunit p51) / equine beta-2-microglobulin complex, biotinylated (equine) (UniProt P30441); experiment: SPR (Biacore), pH 6
UniProt P30441, sequence (P30441 21-118, one chain of several): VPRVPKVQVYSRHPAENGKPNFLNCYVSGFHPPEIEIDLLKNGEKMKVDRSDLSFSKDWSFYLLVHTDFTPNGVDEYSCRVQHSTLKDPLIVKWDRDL

Row | Binder | Kd
1 | equine IgG4 D312M (antibody, part only; not given: variable domains, not shown: another chain or arm of the molecule) constant: ASTTAPKVFPLASHSAATSGSTVALGCLVSSYFPEPVTVSWNSGALTSGVHTFPSVLQSSGLYSLSSMVTVPASSLKSQTYICNVAHPASSTKVDKKIVIKECNGGCPAECLQVGPSVFIFPPKPKDVLMISRTPTVTCVVVDVGHDFPDVQFNWYVDGVETHTATTEPKQEQFNSTYRVVSVLPIQHKMWLSGKEFKCKVNNKALPAPVERTISKPTGQPREPQVYVLAPHRDELSKNKVSVTCLVKDFYPTDIDIEWKSNGQPEPETKYSTTPAQLDSDGSYFLYSKLTVETNRWQQGTTFTCAVMHEALHNHYTEKSVSKSPGK | 25 nM
2 | equine IgG4 Y436E (antibody, part only; not given: variable domains, not shown: another chain or arm of the molecule) constant: ASTTAPKVFPLASHSAATSGSTVALGCLVSSYFPEPVTVSWNSGALTSGVHTFPSVLQSSGLYSLSSMVTVPASSLKSQTYICNVAHPASSTKVDKKIVIKECNGGCPAECLQVGPSVFIFPPKPKDVLMISRTPTVTCVVVDVGHDFPDVQFNWYVDGVETHTATTEPKQEQFNSTYRVVSVLPIQHKDWLSGKEFKCKVNNKALPAPVERTISKPTGQPREPQVYVLAPHRDELSKNKVSVTCLVKDFYPTDIDIEWKSNGQPEPETKYSTTPAQLDSDGSYFLYSKLTVETNRWQQGTTFTCAVMHEALHNHETEKSVSKSPGK | 91.5 nM
3 | equine IgG4 D312R (antibody, part only; not given: variable domains, not shown: another chain or arm of the molecule) constant: ASTTAPKVFPLASHSAATSGSTVALGCLVSSYFPEPVTVSWNSGALTSGVHTFPSVLQSSGLYSLSSMVTVPASSLKSQTYICNVAHPASSTKVDKKIVIKECNGGCPAECLQVGPSVFIFPPKPKDVLMISRTPTVTCVVVDVGHDFPDVQFNWYVDGVETHTATTEPKQEQFNSTYRVVSVLPIQHKRWLSGKEFKCKVNNKALPAPVERTISKPTGQPREPQVYVLAPHRDELSKNKVSVTCLVKDFYPTDIDIEWKSNGQPEPETKYSTTPAQLDSDGSYFLYSKLTVETNRWQQGTTFTCAVMHEALHNHYTEKSVSKSPGK | 18.5 nM
4 | equine IgG4 D312V (antibody, part only; not given: variable domains, not shown: another chain or arm of the molecule) constant: ASTTAPKVFPLASHSAATSGSTVALGCLVSSYFPEPVTVSWNSGALTSGVHTFPSVLQSSGLYSLSSMVTVPASSLKSQTYICNVAHPASSTKVDKKIVIKECNGGCPAECLQVGPSVFIFPPKPKDVLMISRTPTVTCVVVDVGHDFPDVQFNWYVDGVETHTATTEPKQEQFNSTYRVVSVLPIQHKVWLSGKEFKCKVNNKALPAPVERTISKPTGQPREPQVYVLAPHRDELSKNKVSVTCLVKDFYPTDIDIEWKSNGQPEPETKYSTTPAQLDSDGSYFLYSKLTVETNRWQQGTTFTCAVMHEALHNHYTEKSVSKSPGK | 31.1 nM
5 | equine IgG4 Y436C (antibody, part only; not given: Variable domains, not shown: another chain or arm of the molecule) constant: ASTTAPKVFPLASHSAATSGSTVALGCLVSSYFPEPVTVSWNSGALTSGVHTFPSVLQSSGLYSLSSMVTVPASSLKSQTYICNVAHPASSTKVDKKIVIKECNGGCPAECLQVGPSVFIFPPKPKDVLMISRTPTVTCVVVDVGHDFPDVQFNWYVDGVETHTATTEPKQEQFNSTYRVVSVLPIQHKDWLSGKEFKCKVNNKALPAPVERTISKPTGQPREPQVYVLAPHRDELSKNKVSVTCLVKDFYPTDIDIEWKSNGQPEPETKYSTTPAQLDSDGSYFLYSKLTVETNRWQQGTTFTCAVMHEALHNHCTEKSVSKSPGK | 57 nM
6 | equine IgG4 D312N (antibody, part only; not given: variable domains, not shown: another chain or arm of the molecule) constant: ASTTAPKVFPLASHSAATSGSTVALGCLVSSYFPEPVTVSWNSGALTSGVHTFPSVLQSSGLYSLSSMVTVPASSLKSQTYICNVAHPASSTKVDKKIVIKECNGGCPAECLQVGPSVFIFPPKPKDVLMISRTPTVTCVVVDVGHDFPDVQFNWYVDGVETHTATTEPKQEQFNSTYRVVSVLPIQHKNWLSGKEFKCKVNNKALPAPVERTISKPTGQPREPQVYVLAPHRDELSKNKVSVTCLVKDFYPTDIDIEWKSNGQPEPETKYSTTPAQLDSDGSYFLYSKLTVETNRWQQGTTFTCAVMHEALHNHYTEKSVSKSPGK | 16.1 nM
7 | equine IgG4 D312S (antibody, part only; not given: variable domains, not shown: another chain or arm of the molecule) constant: ASTTAPKVFPLASHSAATSGSTVALGCLVSSYFPEPVTVSWNSGALTSGVHTFPSVLQSSGLYSLSSMVTVPASSLKSQTYICNVAHPASSTKVDKKIVIKECNGGCPAECLQVGPSVFIFPPKPKDVLMISRTPTVTCVVVDVGHDFPDVQFNWYVDGVETHTATTEPKQEQFNSTYRVVSVLPIQHKSWLSGKEFKCKVNNKALPAPVERTISKPTGQPREPQVYVLAPHRDELSKNKVSVTCLVKDFYPTDIDIEWKSNGQPEPETKYSTTPAQLDSDGSYFLYSKLTVETNRWQQGTTFTCAVMHEALHNHYTEKSVSKSPGK | 17.4 nM
8 | equine IgG4 D312P (antibody, part only; not given: Variable domains, not shown: another chain or arm of the molecule) constant: ASTTAPKVFPLASHSAATSGSTVALGCLVSSYFPEPVTVSWNSGALTSGVHTFPSVLQSSGLYSLSSMVTVPASSLKSQTYICNVAHPASSTKVDKKIVIKECNGGCPAECLQVGPSVFIFPPKPKDVLMISRTPTVTCVVVDVGHDFPDVQFNWYVDGVETHTATTEPKQEQFNSTYRVVSVLPIQHKPWLSGKEFKCKVNNKALPAPVERTISKPTGQPREPQVYVLAPHRDELSKNKVSVTCLVKDFYPTDIDIEWKSNGQPEPETKYSTTPAQLDSDGSYFLYSKLTVETNRWQQGTTFTCAVMHEALHNHYTEKSVSKSPGK | 15.1 nM
9 | equine IgG4 D312Y (antibody, part only; not given: variable domains, not shown: another chain or arm of the molecule) constant: ASTTAPKVFPLASHSAATSGSTVALGCLVSSYFPEPVTVSWNSGALTSGVHTFPSVLQSSGLYSLSSMVTVPASSLKSQTYICNVAHPASSTKVDKKIVIKECNGGCPAECLQVGPSVFIFPPKPKDVLMISRTPTVTCVVVDVGHDFPDVQFNWYVDGVETHTATTEPKQEQFNSTYRVVSVLPIQHKYWLSGKEFKCKVNNKALPAPVERTISKPTGQPREPQVYVLAPHRDELSKNKVSVTCLVKDFYPTDIDIEWKSNGQPEPETKYSTTPAQLDSDGSYFLYSKLTVETNRWQQGTTFTCAVMHEALHNHYTEKSVSKSPGK | 19.1 nM
10 | equine IgG4 D312Q (antibody, part only; not given: variable domains, not shown: another chain or arm of the molecule) constant: ASTTAPKVFPLASHSAATSGSTVALGCLVSSYFPEPVTVSWNSGALTSGVHTFPSVLQSSGLYSLSSMVTVPASSLKSQTYICNVAHPASSTKVDKKIVIKECNGGCPAECLQVGPSVFIFPPKPKDVLMISRTPTVTCVVVDVGHDFPDVQFNWYVDGVETHTATTEPKQEQFNSTYRVVSVLPIQHKQWLSGKEFKCKVNNKALPAPVERTISKPTGQPREPQVYVLAPHRDELSKNKVSVTCLVKDFYPTDIDIEWKSNGQPEPETKYSTTPAQLDSDGSYFLYSKLTVETNRWQQGTTFTCAVMHEALHNHYTEKSVSKSPGK | 28.1 nM
11 | equine IgG4 Y436A (antibody, part only; not given: variable domains, not shown: another chain or arm of the molecule) constant: ASTTAPKVFPLASHSAATSGSTVALGCLVSSYFPEPVTVSWNSGALTSGVHTFPSVLQSSGLYSLSSMVTVPASSLKSQTYICNVAHPASSTKVDKKIVIKECNGGCPAECLQVGPSVFIFPPKPKDVLMISRTPTVTCVVVDVGHDFPDVQFNWYVDGVETHTATTEPKQEQFNSTYRVVSVLPIQHKDWLSGKEFKCKVNNKALPAPVERTISKPTGQPREPQVYVLAPHRDELSKNKVSVTCLVKDFYPTDIDIEWKSNGQPEPETKYSTTPAQLDSDGSYFLYSKLTVETNRWQQGTTFTCAVMHEALHNHATEKSVSKSPGK | 21.6 nM
12 | equine IgG4 Y436D (antibody, part only; not given: variable domains, not shown: another chain or arm of the molecule) constant: ASTTAPKVFPLASHSAATSGSTVALGCLVSSYFPEPVTVSWNSGALTSGVHTFPSVLQSSGLYSLSSMVTVPASSLKSQTYICNVAHPASSTKVDKKIVIKECNGGCPAECLQVGPSVFIFPPKPKDVLMISRTPTVTCVVVDVGHDFPDVQFNWYVDGVETHTATTEPKQEQFNSTYRVVSVLPIQHKDWLSGKEFKCKVNNKALPAPVERTISKPTGQPREPQVYVLAPHRDELSKNKVSVTCLVKDFYPTDIDIEWKSNGQPEPETKYSTTPAQLDSDGSYFLYSKLTVETNRWQQGTTFTCAVMHEALHNHDTEKSVSKSPGK | 25.5 nM
13 | equine IgG4 D312W (antibody, part only; not given: Variable domains, not shown: another chain or arm of the molecule) constant: ASTTAPKVFPLASHSAATSGSTVALGCLVSSYFPEPVTVSWNSGALTSGVHTFPSVLQSSGLYSLSSMVTVPASSLKSQTYICNVAHPASSTKVDKKIVIKECNGGCPAECLQVGPSVFIFPPKPKDVLMISRTPTVTCVVVDVGHDFPDVQFNWYVDGVETHTATTEPKQEQFNSTYRVVSVLPIQHKWWLSGKEFKCKVNNKALPAPVERTISKPTGQPREPQVYVLAPHRDELSKNKVSVTCLVKDFYPTDIDIEWKSNGQPEPETKYSTTPAQLDSDGSYFLYSKLTVETNRWQQGTTFTCAVMHEALHNHYTEKSVSKSPGK | 12.1 nM
14 | equine IgG4 D312T (antibody, part only; not given: variable domains, not shown: another chain or arm of the molecule) constant: ASTTAPKVFPLASHSAATSGSTVALGCLVSSYFPEPVTVSWNSGALTSGVHTFPSVLQSSGLYSLSSMVTVPASSLKSQTYICNVAHPASSTKVDKKIVIKECNGGCPAECLQVGPSVFIFPPKPKDVLMISRTPTVTCVVVDVGHDFPDVQFNWYVDGVETHTATTEPKQEQFNSTYRVVSVLPIQHKTWLSGKEFKCKVNNKALPAPVERTISKPTGQPREPQVYVLAPHRDELSKNKVSVTCLVKDFYPTDIDIEWKSNGQPEPETKYSTTPAQLDSDGSYFLYSKLTVETNRWQQGTTFTCAVMHEALHNHYTEKSVSKSPGK | 28.7 nM
15 | equine IgG1 T286S (antibody, part only; not given: Variable domains, not shown: another chain or arm of the molecule) constant: ASTTAPKVFALAPGCGTTSDSTVALGCLVSGYFPEPVKVSWNSGSLTSGVHTFPSVLQSSGFYSLSSMVTVPASTWTSETYICNVVHAASNFKVDKRIEPIPDNHQKVCDMSKCPKCPAPELLGGPSVFIFPPNPKDTLMITRTPEVTCVVVDVSQENPDVKFNWYMDGVEVRSATTRPKEEQFNSTYRVVSVLRIQHQDWLSGKEFKCKVNNQALPQPIERTITKTKGRSQEPQVYVLAPHPDELSKSKVSVTCLVKDFYPPEINIEWQSNGQPELETKYSTTQAQQDSDGSYFLYSKLSVDRNRWQQGTTFTCGVMHEALHNHYTQKNVSKNPGK | 13.1 nM
16 | equine IgG1 T286V (antibody, part only; not given: Variable domains, not shown: another chain or arm of the molecule) constant: ASTTAPKVFALAPGCGTTSDSTVALGCLVSGYFPEPVKVSWNSGSLTSGVHTFPSVLQSSGFYSLSSMVTVPASTWTSETYICNVVHAASNFKVDKRIEPIPDNHQKVCDMSKCPKCPAPELLGGPSVFIFPPNPKDTLMITRTPEVTCVVVDVSQENPDVKFNWYMDGVEVRVATTRPKEEQFNSTYRVVSVLRIQHQDWLSGKEFKCKVNNQALPQPIERTITKTKGRSQEPQVYVLAPHPDELSKSKVSVTCLVKDFYPPEINIEWQSNGQPELETKYSTTQAQQDSDGSYFLYSKLSVDRNRWQQGTTFTCGVMHEALHNHYTQKNVSKNPGK | 16.2 nM
